Source: patent US20250297287A1
pKd: −log10 of the molar value.

Assays:
[1] = biological target: albumin (Sigma A9731) (human) (UniProt P02768); test: SPR (CM5 chip), albumin immobilised, FcRn in solution, pH 5.8, 25 C
[2] = biological target: human IgG3 (human) (UniProt P01860); test: SPR (CM5 chip), IgG immobilised, FcRn in solution, pH 5.8, 25 C
[3] = biological target: human IgG4 (human); test: as above
[4] = biological target: albumin (Sigma A9731) (human) (UniProt P02768); test: SPR (C1 chip), FcRn-biotin on surface, albumin injected, pH 5.8, 25 C
[5] = biological target: human IgG1 (human); test: SPR (C1 chip), FcRn-biotin on surface, IgG injected, pH 5.8; estimated from limited surface saturation
[6] = biological target: human IgG2 (human); test: as above
Chain of human IgG2 (human) (Fc, as listed by the source limits assumed): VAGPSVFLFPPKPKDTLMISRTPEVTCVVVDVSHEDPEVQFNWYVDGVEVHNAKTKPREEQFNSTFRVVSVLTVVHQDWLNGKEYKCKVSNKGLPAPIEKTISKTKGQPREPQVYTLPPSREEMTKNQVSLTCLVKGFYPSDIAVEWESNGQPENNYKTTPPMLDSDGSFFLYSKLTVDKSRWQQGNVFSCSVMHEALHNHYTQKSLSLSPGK

[7] = biological target: human IgG3 (human) (UniProt P01860); test: as above
[8] = biological target: human IgG4 (human); test: as above

Chain of human IgG3 (human) (P01860 other isoform, or with tags, fused parts or gaps): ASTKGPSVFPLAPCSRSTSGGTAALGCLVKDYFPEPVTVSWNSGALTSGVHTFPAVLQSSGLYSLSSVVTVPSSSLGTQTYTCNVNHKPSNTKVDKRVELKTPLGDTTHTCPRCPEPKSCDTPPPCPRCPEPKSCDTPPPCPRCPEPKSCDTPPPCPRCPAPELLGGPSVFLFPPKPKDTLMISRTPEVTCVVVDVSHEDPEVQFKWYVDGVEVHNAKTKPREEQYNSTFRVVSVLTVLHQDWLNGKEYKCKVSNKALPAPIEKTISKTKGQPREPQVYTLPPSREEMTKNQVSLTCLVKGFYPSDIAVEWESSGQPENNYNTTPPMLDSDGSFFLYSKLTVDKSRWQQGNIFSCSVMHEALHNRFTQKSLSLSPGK

| pKd [1] | pKd [2] | pKd [3] | pKd [4] | pKd [5] | pKd [6] | pKd [7] | pKd [8] | Substance |
| --- | --- | --- | --- | --- | --- | --- | --- | --- |
| 6.02 |  |  |  |  |  |  |  | FcRn E133K (extracellular domain with beta2 microglobulin) (from UniProt P61769 21-119) (receptor) |
| 6.32 | 6.68 | 6.62 | 5.72 | 5.28 | 5.18 | 5.38 | 4.90 | FcRn M118I (extracellular domain with beta2 microglobulin) (from UniProt P61769 21-119) (receptor) |
| 6.36 |  |  | 5.77 |  |  |  |  | FcRn W131R (extracellular domain with beta2 microglobulin) (from UniProt P61769 21-119) (receptor) |
